Experimental data from publication PMC4432389, “Cytosolic Hsp70 and co-chaperones constitute a novel system for tRNA import into the nucleus” (eLife, 2015).

Experiments:
[1] = molecular target: T1, Ssa1p (S. cerevisiae, UniProt P10591 1-642); assay: pull-down; 200 pmol GST or GST-nucleoporin fusion and 40 pmol Ssa1p or Ssa2p incubated with Glutathione Sepharose in Buffer 88 (20 mM HEPES-KOH pH 6.8, 2 mM Mg(OAc)2, 150 mM KOAc) with 0.10% wt/vol Tween-20, 4°C, 2 hr; eluted with 10 mM reduced glutathione; Ssa proteins detected by Western blotting with anti-Ssa protein antibodies; settings: both partners purified
T1 construct: Ssa1p, cytosolic Hsp70 of S. cerevisiae, full length (residues 1-642 by the domain constructs); Expressed from a pCold2 vector with a C-terminal His6 tag; also called Ssa1p-His6; Ssa proteins; source: E. coli BL21(DE3) co-expressing trigger factor, purified (Ni-NTA agarose)

[2] = molecular target: T2, Ssa2p (S. cerevisiae, UniProt P10592 1-639); assay: as above; settings: both partners purified
T2 construct: Ssa2p, major cytosolic Hsp70 of S. cerevisiae, full length (residues 1-639 by the domain constructs); Expressed from a pCold2 vector with a C-terminal His6 tag; also called Ssa2p-His6; Ssa proteins; source: E. coli BL21(DE3) co-expressing trigger factor, purified (Ni-NTA agarose)
T2 sequence (P10592 whole entry, the tested form may be a part): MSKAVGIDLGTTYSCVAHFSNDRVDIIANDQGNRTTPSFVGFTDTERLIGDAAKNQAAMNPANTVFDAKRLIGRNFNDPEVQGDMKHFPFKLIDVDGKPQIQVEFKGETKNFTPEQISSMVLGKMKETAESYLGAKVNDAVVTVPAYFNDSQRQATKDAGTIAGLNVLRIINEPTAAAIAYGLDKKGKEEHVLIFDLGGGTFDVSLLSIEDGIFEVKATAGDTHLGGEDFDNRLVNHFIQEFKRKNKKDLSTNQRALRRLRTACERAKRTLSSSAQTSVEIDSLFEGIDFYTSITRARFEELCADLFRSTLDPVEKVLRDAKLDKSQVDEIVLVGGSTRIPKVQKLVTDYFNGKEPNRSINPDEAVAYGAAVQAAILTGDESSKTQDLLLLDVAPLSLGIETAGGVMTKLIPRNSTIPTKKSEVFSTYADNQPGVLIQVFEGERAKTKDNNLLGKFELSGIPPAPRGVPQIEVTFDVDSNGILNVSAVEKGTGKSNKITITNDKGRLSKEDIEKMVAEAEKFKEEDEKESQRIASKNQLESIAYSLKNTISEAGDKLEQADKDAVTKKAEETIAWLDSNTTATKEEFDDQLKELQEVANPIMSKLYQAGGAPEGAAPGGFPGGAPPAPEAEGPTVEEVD

T1 sequence (P10591 whole entry, the tested form may be a part): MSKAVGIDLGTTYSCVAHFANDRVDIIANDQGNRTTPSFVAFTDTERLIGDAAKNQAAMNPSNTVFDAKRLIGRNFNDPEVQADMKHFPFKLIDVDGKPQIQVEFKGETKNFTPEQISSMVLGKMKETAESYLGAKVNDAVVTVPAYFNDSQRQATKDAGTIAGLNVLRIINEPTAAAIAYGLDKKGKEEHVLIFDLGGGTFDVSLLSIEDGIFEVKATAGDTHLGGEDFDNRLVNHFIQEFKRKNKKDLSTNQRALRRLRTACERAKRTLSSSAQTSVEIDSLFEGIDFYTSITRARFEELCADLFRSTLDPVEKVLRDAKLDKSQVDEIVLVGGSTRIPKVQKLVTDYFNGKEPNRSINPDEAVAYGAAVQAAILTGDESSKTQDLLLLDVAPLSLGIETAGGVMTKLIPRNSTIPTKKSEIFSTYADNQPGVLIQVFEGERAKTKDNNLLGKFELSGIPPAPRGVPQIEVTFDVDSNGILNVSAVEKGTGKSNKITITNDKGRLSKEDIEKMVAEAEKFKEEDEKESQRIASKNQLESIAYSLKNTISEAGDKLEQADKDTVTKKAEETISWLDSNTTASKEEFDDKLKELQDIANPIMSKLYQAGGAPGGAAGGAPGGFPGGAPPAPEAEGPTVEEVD

B1: GST-Nup116(165–715)p (domain or fragment, S. cerevisiae, UniProt Q02630 165-715, looked up)
chain: RKFGTSQNGTGTTFNNPQGTTNTGFGIMGNNNSTTSATTGGLFGQKPATGMFGTGTGSGGGFGSGATNSTGLFGSSTNLSGNSAFGANKPATSGGLFGNTTNNPTNGTNNTGLFGQQNSNTNGGLFGQQQNSFGANNVSNGGAFGQVNRGAFPQQQTQQGSGGIFGQSNANANGGAFGQQQGTGALFGAKPASGGLFGQSAGSKAFGMNTNPTGTTGGLFGQTNQQQSGGGLFGQQQNSNAGGLFGQNNQSQNQSGLFGQQNSSNAFGQPQQQGGLFGSKPAGGLFGQQQGASTFASGNAQNNSIFGQNNQQQQSTGGLFGQQNNQSQSQPGGLFGQTNQNNNQPFGQNGLQQPQQNNSLFGAKPTGFGNTSLFSNSTTNQSNGISGNNLQQQSGGLFQNKQQPASGGLFGSKPSNTVGGGLFGNNQVANQNNPASTSGGLFGSKPATGSLFGGTNSTAPNASSGGIFGSNNASNTAATTNSTGLFGNKPVGAGASTSAGGLFGNNNNSSLNNSNGSTGLFGSNNTSQSTNAGGLFQNNTSTNTSGGGLFS
notes: Cloned into pGEX-4T-2; also called Nup116p; source: DH5α, purified (Glutathione Sepharose, NAP-10 desalting)
- binding result [1]: binds
- binding result [2]: binds
